Laboratory results reported in patent US5928933A, “Process for the enzymatic resolution of N-(alkoxycarbonyl)-4-ketoproline alkyl esters or N-(alkoxycarbonyl)-4-hydroxyproline alkyl esters using Candida antarctica lipase B” (priority 1998, dated 1999).

B1: protease, type XXVII: commercial enzyme preparation, (Nagarase) (protein, UniProt P00782 108-382, looked up)
Subtilisin BPN': AQSVPYGVSQIKAPALHSQGYTGSNVKVAVIDSGIDSSHPDLKVAGGASMVPSETNPFQDNNSHGTHVAGTVAALNNSIGVLGVAPSASLYAVKVLGADGSGQYSWIINGIEWAIANNMDVINMSLGGPSGSAALKAAVDKAVASGVVVVAAAGNEGTSGSSSTVGYPGKYPSVIAVGAVDSSNQRASFSSVGPELDVMAPGVSIQSTLPGNKYGAYNGTSMASPHVAGAAALILSKHPNWTNTQVRSSLENTTTKLGDSFYYGKGLINVQAAAQ
B2: protease, type XXIV: commercial enzyme preparation, source bacterial (subtil. Carlsberg) (protein, UniProt P00780 106-379, looked up)
Subtilisin Carlsberg: AQTVPYGIPLIKADKVQAQGFKGANVKVAVLDTGIQASHPDLNVVGGASFVAGEAYNTDGNGHGTHVAGTVAALDNTTGVLGVAPSVSLYAVKVLNSSGSGSYSGIVSGIEWATTNGMDVINMSLGGASGSTAMKQAVDNAYAKGVVVVAAAGNSGSSGNTNTIGYPAKYDSVIAVGAVDSNSNRASFSSVGAELEVMAPGAGVYSTYPTNTYATLNGTSMASPHVAGAAALILSKHPNLSASQVRNRLSSTATYLGSSFYYGKGLINVEAAAQ
B3: protease (Chirazyme P1): commercial enzyme preparation, source Bacillus licheniformis (protein, UniProt P00780 106-379, looked up)
Subtilisin Carlsberg: B2 Subtilisin Carlsberg
B4: protease, trypsin porcine pancreas: commercial trypsin, source porcine pancreas (protein, UniProt P00761 9-231, looked up)
Trypsin: IVGGYTCAANSIPYQVSLNSGSHFCGGSLINSQWVVSAAHCYKSRIQVRLGEHNIDVLEGNEQFINAAKIITHPNFNGNTLDNDIMLIKLSSPATLNSRVATVSLPRSCAAAGTECLISGWGNTKSSGSSYPSLLQCLKAPVLSDSSCKSSYPGQITGNMICVGFLEGGKDSCQGDSGGPVVCNGQLQGIVSWGYGCAQKNKPGVYTKVCNYVNWIQQTIAAN
B5: protease, type X: commercial enzyme preparation, source B. thermoproteoliticus rokko (protein, UniProt P00800 233-548, looked up)
Thermolysin: ITGTSTVGVGRGVLGDQKNINTTYSTYYYLQDNTRGNGIFTYDAKYRTTLPGSLWADADNQFFASYDAPAVDAHYYAGVTYDYYKNVHNRLSYDGNNAAIRSSVHYSQGYNNAFWNGSQMVYGDGDGQTFIPLSGGIDVVAHELTHAVTDYTAGLIYQNESGAINEAISDIFGTLVEFYANKNPDWEIGEDVYTPGISGDSLRSMSDPAKYGDPDHYSKRYTGTQDNGGVHINSGIINKAAYLISQGGTHYGVSVVGIGRDKLGKIFYRALTQYLTPTSNFSQLRAAAVQSATDLYGSTSQEVASVKQAFDAVGVK

Legend:
Format in all cases: biochemical
[1] = Enzyme screens for resolution of racemic N-(acetyl)-4-keto-D,L-proline methyl ester (Example 7, comparative); conditions: 0.100M racemate, 5 h, 5.0 to 30 mg/mL enzyme, 25° C.; for conv. (percent conversion of the racemate): 0.20M sodium succinate pH 6.0; for % ee (enantiomeric excess of the D-isomer): pH 6.0
Description: (§1) An aqueous solution (1.0 mL) containing 0.100M racemic N-(acetyl)-4-keto-D,L-proline methyl ester in 0.20M sodium succinate (pH 6.0) was mixed with 5.0 to 30 mg/mL of commercial enzyme preparations (listed in the table below) at 25° C. […] The dichloromethane extract was then analyzed by chiral gas chromatography on a Chiraldex G-TA column (Advanced Separation Technologies, Inc., 50 m×0.32 mm ID) to determine the percent conversion of the racemate, and the enantiomeric excess of the N-(acetyl)-4-keto-D-proline methyl ester.

[2] = Enzyme screens for resolution of diastereomeric mixture CHLP(MEMC)/THLP(MEMC) (Example 13); conditions: 0.050M each isomer, 5 h, 5.0 to 50 mg/mL enzyme, 25° C.; for conv. (percent conversion of the diastereomeric mixture): 0.100M potassium phosphate pH 7.0; for % de (diastereomeric excess of the cis-L-isomer): pH 7.0
Description: (§2) An aqueous solution containing 0.050M N-(methoxycarbonyl)-trans-4-hydroxy-L-proline methyl ester and 0.050M N-(methoxycarbonyl)-cis-4-hydroxy-L-proline methyl ester in 0.100M potassium phosphate (pH 7.0) was mixed with 5.0 to 50 mg/mL of commercial enzyme preparations (listed in the table below) at 25° C. The reactions were analyzed after 5 h by removal of a 0.200 mL sample and mixing with an equivalent volume of 0.100M propionic acid (HPLC internal standard) in water. The resulting solution was filtered through a 10K molecular weight cut-off filter to remove the enzyme and the filtrate analyzed by high pressure liquid chromatography on a HPX-87H column (Bio-Rad, 30 cm×7.8 mm) to determine the percent conversion of the diastereomeric mixture, and the diastereomeric excess of the N-(methoxycarbonyl)-cis-4-hydroxy-L-proline methyl ester.

[3] = Enzyme screens for resolution of racemic N-(methoxycarbonyl)-4-keto-D,L-proline methyl ester (Example 1); conditions: 0.100M racemate, 5.0 to 50 mg/mL enzyme, 25° C., optimum; for conv. (percent conversion of the racemate): 0.20M sodium succinate pH 6.0, 5 h or 0.20M sodium acetate pH 5.0, 24 h; for % ee (enantiomeric excess of the D-isomer; L-isomer with porcine liver esterase): pH 6.0, 5 h or pH 5.0, 24 h
Description: An aqueous solution (1.0 mL) containing 0.100M racemic N-(methoxycarbonyl)-4-keto-D,L-proline methyl ester in either 0.20M sodium succinate (pH 6.0) or 0.20M sodium acetate (pH 5.0) was mixed with 5.0 to 50 mg/mL of commercial enzyme preparations (listed in the table below) at 25° C. […] The dichloromethane extract was then analyzed by chiral gas chromatography on a Chiraldex G-TA column (Advanced Separation Technologies, Inc., 50 m×0.32 mm ID) to determine the percent conversion of the racemate, and the enantiomeric excess of the N-(methoxycarbonyl)-4-keto-D-proline methyl ester.

[4] = Enzyme screens for resolution of diastereomeric mixture CHDP(MEMC)/THLP(MEMC) (Example 9); conditions: 0.050M each isomer, 5 h or 24 h, 5.0 to 50 mg/mL enzyme, 25° C.; for conv. (percent conversion of the diastereomeric mixture): 0.100M potassium phosphate pH 7.0; for % de (diastereomeric excess of the D-isomer, CHDP(MEMC)): pH 7.0
Description: as §2, with “aqueous solution (1.0 mL) containing 0.050M” for “aqueous solution containing 0.050M”, “and 0.050M N-(methoxycarbonyl)-cis-4-hydroxy-D-proline methyl ester” for “and 0.050M N-(methoxycarbonyl)-cis-4-hydroxy-L-proline methyl ester”, “after 5 h or 24 h by” for “after 5 h by”, “conversion of each isomer of the diastereomeric” for “conversion of the diastereomeric”, “of the N-(methoxycarbonyl)-cis-4-hydroxy-D-proline methyl ester.” for “of the N-(methoxycarbonyl)-cis-4-hydroxy-L-proline methyl ester.”

[5] = Enzyme screens for resolution of racemic N-(methoxycarbonyl)-4,4-dimethoxy-D,L-proline methyl ester (Example 8, comparative); conditions: 0.100M racemate, 6 h or 17 h, 5.0 to 30 mg/mL enzyme, 25° C.; for conv. (percent conversion of the racemate): 0.25M potassium phosphate pH 7.0; for % ee (enantiomeric excess of the D-isomer): pH 7.0
Description: as §1, with “N-(methoxycarbonyl)-4,4-dimethoxy-D,L-proline” for “N-(acetyl)-4-keto-D,L-proline”, “0.25M potassium phosphate” for “0.20M sodium succinate”, “7.0)” for “6.0)”, “ethyl acetate” for “dichloromethane”, “N-(methoxycarbonyl)-4,4-dimethoxy-D-prolinemethyl” for “the N-(acetyl)-4-keto-D-proline methyl”

Row | Molecule | conv. (percent conversion of the racemate) [1] | % ee (enantiomeric excess of the D-isomer) [1] | conv. (percent conversion of the diastereomeric mixture) [2] | % de (diastereomeric excess of the cis-L-isomer) [2] | conv. (percent conversion of the racemate) [3] | % ee (enantiomeric excess of the D-isomer; L-isomer with porcine liver esterase) [3] | conv. (percent conversion of the diastereomeric mixture) [4] | % de (diastereomeric excess of the D-isomer, CHDP(MEMC)) [4] | conv. (percent conversion of the racemate) [5] | % ee (enantiomeric excess of the D-isomer) [5]
1 | protease, pepsin: commercial enzyme preparation, source porcine stomach mucosa | 0% | 0% | 0% | 0% | 0% | 0% | 0% | 0% |  | 
2 | protease, chymopapain: commercial enzyme preparation, source papaya latex | 0% | 0% | 0% | 0% | 0% | 0% | 0% | 0% |  | 
3 | B1 |  |  | 17% | 16% | 27% | 21% | 2% | 4% | 44% | 30%
4 | B2 |  |  | 6% | 5% | 17% | 18% | 16% | 16% | 42% | 22%
5 | B3 | 43% | 37% | 25% | 31% | 54% | 65% | 28% | 26% | 44% | 22%
6 | B4 | 0% | 0% | 0% | 0% | 0% | 0% | 0% | 0% |  | 
7 | B5 | 0% | 0% | 0% | 0% | 0% | 0% | 0% | 0% |  | 
